The target of experiment [1] is T1, human GARP protein not in any GARP/TGFβ1 complex (protein used in ELISA and Octet) (human, UniProt Q14392 20-627, limits assumed).
T1 construct: Coated on plates at 2 µg/ml in the ELISA; also called hGARP; human GARP alone
T1 sequence (looked up): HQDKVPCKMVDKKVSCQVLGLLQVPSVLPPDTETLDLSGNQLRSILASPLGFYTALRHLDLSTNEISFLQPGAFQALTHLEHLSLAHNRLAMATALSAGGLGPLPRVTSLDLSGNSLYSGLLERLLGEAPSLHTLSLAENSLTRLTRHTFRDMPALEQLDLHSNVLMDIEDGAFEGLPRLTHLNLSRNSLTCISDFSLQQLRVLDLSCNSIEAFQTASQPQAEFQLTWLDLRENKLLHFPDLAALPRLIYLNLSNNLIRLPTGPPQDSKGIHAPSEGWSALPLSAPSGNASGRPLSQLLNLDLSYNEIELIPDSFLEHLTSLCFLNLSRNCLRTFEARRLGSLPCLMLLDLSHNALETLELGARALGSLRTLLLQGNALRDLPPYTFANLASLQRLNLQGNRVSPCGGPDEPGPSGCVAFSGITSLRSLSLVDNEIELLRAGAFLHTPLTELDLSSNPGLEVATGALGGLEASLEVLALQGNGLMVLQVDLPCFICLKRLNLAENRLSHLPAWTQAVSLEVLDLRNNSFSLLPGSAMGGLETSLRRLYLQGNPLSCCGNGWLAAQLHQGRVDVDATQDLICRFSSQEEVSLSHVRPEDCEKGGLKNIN
The experiment can be described thus: Octet.

The target in experiment [2] is T2, human GARP/TGFβ1 complex (protein used in ELISA and Octet) (human, UniProt Q14392 20-627; P01137 30-390, limits assumed).
T2 construct: Coated on plates at 4 µg/ml in the ELISA; also called hGARP/TGFβ1; human GARP/latent TGFβ1 complex
The experiment is described as follows: Octet.

Experiment [3] has as its target T3, human GARP/latent TGFβ1 complex on cells (human, UniProt Q14392 20-662; P01137 30-390).
T3 construct: whole, on cells; also called human GARP/TGFβ1 complex; human GARP/TGFβ complex
The experiment is described as follows: flow cytometry on human GARP/latent TGFβ1 transfected CHO-S cells, goat anti-human IgG(H+L) FITC.

Experiment [4] deals with T3, human GARP/latent TGFβ1 complex on cells. Described as above. The source holds these as a separate data set.
Experiment [5] addresses T4, mouse GARP/latent TGFβ1 complex on transfected CHO-S cells (mouse).
T4 construct: also called mouse GARP/TGFβ1 complex; mouse GARP/TGFβ complex
The experiment can be described thus: flow cytometry on mouse GARP/latent TGFβ1 transfected CHO-S cells, goat anti-human IgG(H+L) FITC.

Changes are numbered by the printed parent chain. Read-outs that look alike come from different tables or passages of the source.

B1: Clone hGA17 (antibody, human IgG1, kappa, V domains shown)
VH: QVQLVQSGAEVKKPGASVKVSCKASGFNIKDTYFHWVRQAPGQGLEWMGRIDPTNGNGRYAQKFQGRVTMTRDTSTSTVYMELSSLRSEDTAVYYCATSTGTGYFALVYWGQGTTVTVSS
VL: DIQLTQSPSFLSASVGDRVTITCKASQNVGSAVAWYQQKPGKAPKLLIYWSSTRHTGVPSRFSGSGSGTEFTLTISSLQPEDFATYYCQQYSNYPLTFGGGTKLEIKR
notes: Humanized form of mouse clone GA17; kappa light chain
On to B1, for which the figures for the Kd in experiment [1] and in experiment [2] were 0.429 nM and 0.696 nM, respectively.

B2: Clone GA1#7 (antibody, V domains shown)
VH: QVQLVQSGGGVVQPGRSLRLSCAASGFTFSSYAMHQVRQAPGKGLEWVAVISYDGSQKYYADSVKGRFTISRDNSKNTLYLQMNSLRAEDTAVYYCARDALRTYYYYGMDVWGQGTTVTVSS
VL: SYELTQPPSVSVSPGQTARITCSGDALPDRYTYWYQQKPGQAPVLVIYSDNERPSGIPERFSGSSSGTTATLTINGVQAEDEADYYCQSSDDTYTFGGGTKLTVL
B2: the “EC50 (read off the curve)” value in experiment [3] is around 1 µg/mL.

B3: Clone GA1#8 (antibody, V domains shown)
VH: B2 VH with V50S, Q57N, Y107Q
VL: B2 VL with S55R, S90A, D92Y
On to B3, for which the “EC50 (read off the curve)” value in experiment [3] was around 1 µg/mL. Moreover, the Kd in experiment [2] worked out at 0.281 nM.

B4: Clone GA1 (antibody, V domains shown)
VH: B2 VH with Q57N, A100V
VL: B2 VL with S13F, T69I, S90A
Turning to B4, the “EC50 (read off the curve)” value in experiment [4] is around 0.6 µg/mL; in experiment [5] it was around 0.2 µg/mL; in experiment [3], around 1 µg/mL.

For the origin of these results see patent US20230340098A1 (SHANGHAI HENLIUS BIOTECH, published 2023).
